# In patent US20160319034A1 (ONCOMED PHARMACEUTICALS, published 2016):
# B1: anti-MET/FZD8-Fc bispecific agent 315B06 (bispecific antibody, human IgG2, kappa)
# heavy: QVQLQESGPGLVKPSETLSLTCTVTGTTITASYAWSWIRQPPGKGLEWMGYISYSGGTDYNPSLKSRITISRDTFKNQFSLKLSSVTAADTATYYCARKGAYWGQGTLVTVSSASTKGPSVFPLAPCSRSTSESTAALGCLVKDYFPEPVTVSWNSGALTSGVHTFPAVLQSSGLYSLSSVVTVPSSNFGTQTYTCNVDHKPSNTKVDKTVERKCCVECPPCPAPPVAGPSVFLFPPKPKDTLMISRTPEVTCVVVDVSHEDPEVQFNWYVDGVEVHNAKTKPREEQFNSTFRVVSVLTVVHQDWLNGKEYKCKVSNKGLPAPIEKTISKTKGQPREPQVYTLPPSREKMTKNQVSLTCLVKGFYPSDIAVEWESNGQPENNYKTTPPMLKSDGSFFLYSKLTVDKSRWQQGNVFSCSVMHEALHNHYTQKSLSLSPGK
# light: DIVLTQSPATLSASPGEKVTLTCSASSSVSSSYLYWYQQKPGQAPKLLIYSTSNLASGVPARFSGSGSGTSYSLTISSLEPEDFATYYCHQWSSYPYTFGGGTKLEIKRTVAAPSVFIFPPSDEQLKSGTASVVCLLNNFYPREAKVQWKVDNALQSGNSQESVTEQDSKDSTYSLSSTLTLSKADYEKHKVYACEVTHQGLSSPVTKSFNRGEC
# chain: ASAKELACQEITVPLCKGIGYNYTYMPNQFNHDTQDEAGLEVHQFWPLVEIQCSPDLKFFLCSMYTPICLEDYKKPLPPCRSVCERAKAGCAPLMRQYGFAWPDRMRCDRLPEQGNPDTLCMDYNRTDLTTTKVDKTVERKSCVECPPCPAPPVAGPSVFLFPPKPKDTLMISRTPEVTCVVVDVSHEDPEVQFNWYVDGVEVHNAKTKPREEQFNSTFRVVSVLTVVHQDWLNGKEYKCKVSNKGLPAPIEKTISKTKGQPREPQVYTLPPSREEMTKNQVSLTCLVEGFYPSDIAVEWESNGQPENNYKTTPPMLDSDGSFFLYSELTVDKSRWQQGNVFSCSVMHEALHNHYTQKSLSLSPGK
# notes: Heterodimer with one anti-MET arm (heavy and light chain) and one FZD8-Fc soluble receptor arm; also called bispecific anti-MET/FZD8-Fc agent 315B06; 351B06 [sic]
# B2: anti-MET/FZD8-Fc bispecific agent 315B07 (bispecific antibody, human IgG2, kappa)
# heavy: QVQLQESGPGLVKPSETLSLTCTVSGTTITASYAWSWIRQPPGKGLEWMGYISYSGGTDYNPSLKSRVTISRDTFKNQFSLKLSSVTAADTAVYYCARKGAYWGQGTLVTVSSASTKGPSVFPLAPCSRSTSESTAALGCLVKDYFPEPVTVSWNSGALTSGVHTFPAVLQSSGLYSLSSVVTVPSSNFGTQTYTCNVDHKPSNTKVDKTVERKCCVECPPCPAPPVAGPSVFLFPPKPKDTLMISRTPEVTCVVVDVSHEDPEVQFNWYVDGVEVHNAKTKPREEQFNSTFRVVSVLTVVHQDWLNGKEYKCKVSNKGLPAPIEKTISKTKGQPREPQVYTLPPSREKMTKNQVSLTCLVKGFYPSDIAVEWESNGQPENNYKTTPPMLKSDGSFFLYSKLTVDKSRWQQGNVFSCSVMHEALHNHYTQKSLSLSPGK
# light: EIVLTQSPATLSLSPGERATLSCSASSSVSSSYLYWYQQKPGQAPRLLIYSTSNLASGIPARFSGSGSGTDFTLTISRLEPEDFAVYYCHQWSSYPYTFGQGTKLEIKRTVAAPSVFIFPPSDEQLKSGTASVVCLLNNFYPREAKVQWKVDNALQSGNSQESVTEQDSKDSTYSLSSTLTLSKADYEKHKVYACEVTHQGLSSPVTKSFNRGEC
# chain: ASAKELACQEITVPLCKGIGYNYTYMPNQFNHDTQDEAGLEVHQFWPLVEIQCSPDLKFFLCSMYTPICLEDYKKPLPPCRSVCERAKAGCAPLMRQYGFAWPDRMRCDRLPEQGNPDTLCMDYNRTDLTTTKVDKTVERKSCVECPPCPAPPVAGPSVFLFPPKPKDTLMISRTPEVTCVVVDVSHEDPEVQFNWYVDGVEVHNAKTKPREEQFNSTFRVVSVLTVVHQDWLNGKEYKCKVSNKGLPAPIEKTISKTKGQPREPQVYTLPPSREEMTKNQVSLTCLVEGFYPSDIAVEWESNGQPENNYKTTPPMLDSDGSFFLYSELTVDKSRWQQGNVFSCSVMHEALHNHYTQKSLSLSPGK
# notes: Heterodimer with one humanized anti-MET arm (73R010) and one FZD8-Fc soluble receptor arm; also called OMP-315B07; 3151307 [sic]
# B3: anti-MET antibody 73R009 (bivalent “parental” antibody) (antibody, human IgG2, kappa, V domains shown)
# VH: QVQLQESGPGLVKPSETLSLTCTVTGTTITASYAWSWIRQPPGKGLEWMGYISYSGGTDYNPSLKSRITISRDTFKNQFSLKLSSVTAADTATYYCARKGAYWGQGTLVTVSS
# VL: DIVLTQSPATLSASPGEKVTLTCSASSSVSSSYLYWYQQKPGQAPKLLIYSTSNLASGVPARFSGSGSGTSYSLTISSLEPEDFATYYCHQWSSYPYTFGGGTKLEIKR
# B4: monovalent version of anti-MET antibody 73R009 (antibody, V domains shown)
# VH: QVQLQESGPGLVKPSETLSLTCTVTGTTITASYAWSWIRQPPGKGLEWMGYISYSGGTDYNPSLKSRITISRDTFKNQFSLKLSSVTAADTATYYCARKGAYWGQGTLVTVSS
# VL: DIVLTQSPATLSASPGEKVTLTCSASSSVSSSYLYWYQQKPGQAPKLLIYSTSNLASGVPARFSGSGSGTSYSLTISSLEPEDFATYYCHQWSSYPYTFGGGTKLEIK
# notes: Only the 73R009 variable regions can be tied to this molecule; also called monovalent anti-MET antibody 73R009; monovalent version of 73R009
# Key:
# [1] = target: human MET (soluble analyte in the Biacore assay) (human) (UniProt P08581); test: SPR (Biacore 2000): agent captured via goat anti-human antibody, human MET injected
# Chain of human MET (soluble analyte in the Biacore assay) (human) (P08581 25-932 limits assumed): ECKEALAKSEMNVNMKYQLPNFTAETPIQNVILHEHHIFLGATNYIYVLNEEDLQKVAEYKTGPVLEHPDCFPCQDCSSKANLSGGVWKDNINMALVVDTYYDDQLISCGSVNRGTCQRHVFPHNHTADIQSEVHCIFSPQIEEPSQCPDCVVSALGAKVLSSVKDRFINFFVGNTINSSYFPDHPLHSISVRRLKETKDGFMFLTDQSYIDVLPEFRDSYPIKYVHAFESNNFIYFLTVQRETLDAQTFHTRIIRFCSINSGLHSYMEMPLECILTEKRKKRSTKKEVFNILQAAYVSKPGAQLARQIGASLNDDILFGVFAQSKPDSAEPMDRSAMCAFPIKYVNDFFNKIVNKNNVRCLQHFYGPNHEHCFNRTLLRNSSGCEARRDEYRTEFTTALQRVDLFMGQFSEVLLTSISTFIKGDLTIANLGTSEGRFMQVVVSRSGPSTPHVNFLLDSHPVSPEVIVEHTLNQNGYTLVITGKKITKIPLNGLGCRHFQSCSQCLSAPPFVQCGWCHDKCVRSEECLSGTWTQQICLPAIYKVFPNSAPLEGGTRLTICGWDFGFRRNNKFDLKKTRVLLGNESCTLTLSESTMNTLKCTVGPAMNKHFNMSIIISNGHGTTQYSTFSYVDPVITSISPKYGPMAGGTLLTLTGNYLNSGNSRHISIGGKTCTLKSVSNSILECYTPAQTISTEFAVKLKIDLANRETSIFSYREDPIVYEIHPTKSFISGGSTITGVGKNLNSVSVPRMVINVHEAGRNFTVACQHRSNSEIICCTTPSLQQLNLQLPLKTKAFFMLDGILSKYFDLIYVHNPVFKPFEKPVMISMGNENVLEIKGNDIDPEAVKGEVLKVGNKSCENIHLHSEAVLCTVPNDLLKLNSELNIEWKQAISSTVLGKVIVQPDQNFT
# [2] = target: full-length human MET (FL-MET) on cells (human) (UniProt P08581); test: FACS: inhibition of biotin-HGF binding to MET-transfected HEK-293T cells, agent at 10 µg/ml
# Chain of full-length human MET (FL-MET) on cells (human) (P08581 25-1390 limits assumed): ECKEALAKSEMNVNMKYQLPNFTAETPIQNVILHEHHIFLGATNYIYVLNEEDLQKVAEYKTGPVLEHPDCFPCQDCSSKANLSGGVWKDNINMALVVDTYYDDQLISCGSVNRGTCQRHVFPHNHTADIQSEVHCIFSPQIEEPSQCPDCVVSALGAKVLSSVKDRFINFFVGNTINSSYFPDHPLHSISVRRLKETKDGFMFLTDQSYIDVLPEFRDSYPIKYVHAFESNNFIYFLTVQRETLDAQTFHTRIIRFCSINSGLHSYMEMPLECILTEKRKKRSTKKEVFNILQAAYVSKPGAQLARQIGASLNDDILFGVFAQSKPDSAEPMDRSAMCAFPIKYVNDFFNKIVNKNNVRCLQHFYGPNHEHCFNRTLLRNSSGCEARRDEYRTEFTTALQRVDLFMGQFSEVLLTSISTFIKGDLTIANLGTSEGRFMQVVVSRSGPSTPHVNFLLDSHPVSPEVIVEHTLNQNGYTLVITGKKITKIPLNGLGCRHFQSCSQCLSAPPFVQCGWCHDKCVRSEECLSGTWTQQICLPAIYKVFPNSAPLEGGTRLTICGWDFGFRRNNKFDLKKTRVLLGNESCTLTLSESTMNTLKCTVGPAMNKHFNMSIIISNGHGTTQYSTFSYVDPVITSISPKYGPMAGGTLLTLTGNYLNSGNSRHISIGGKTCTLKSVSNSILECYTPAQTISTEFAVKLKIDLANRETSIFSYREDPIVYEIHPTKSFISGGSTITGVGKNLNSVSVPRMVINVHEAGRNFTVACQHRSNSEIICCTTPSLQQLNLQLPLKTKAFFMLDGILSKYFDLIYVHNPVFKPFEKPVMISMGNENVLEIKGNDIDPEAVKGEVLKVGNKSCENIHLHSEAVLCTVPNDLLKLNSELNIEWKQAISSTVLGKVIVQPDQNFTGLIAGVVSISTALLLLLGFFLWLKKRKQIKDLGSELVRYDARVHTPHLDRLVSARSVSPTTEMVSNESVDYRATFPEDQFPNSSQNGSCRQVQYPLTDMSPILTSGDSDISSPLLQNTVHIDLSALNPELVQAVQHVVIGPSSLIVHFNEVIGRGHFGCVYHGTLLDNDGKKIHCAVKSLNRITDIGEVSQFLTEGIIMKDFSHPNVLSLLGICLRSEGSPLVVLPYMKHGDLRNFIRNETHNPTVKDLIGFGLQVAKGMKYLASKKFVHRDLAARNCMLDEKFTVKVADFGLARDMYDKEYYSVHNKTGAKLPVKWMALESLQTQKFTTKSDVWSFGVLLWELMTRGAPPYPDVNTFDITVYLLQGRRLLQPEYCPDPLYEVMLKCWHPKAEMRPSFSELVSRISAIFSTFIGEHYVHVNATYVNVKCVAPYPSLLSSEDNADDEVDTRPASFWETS
# [3] = target: full-length human MET (FL-MET) on cells (human) (UniProt P08581); test: FACS blocking assay on MET-transfected HEK-293T cells; blocked ligand: biotinylated HGF, PE-streptavidin
# [4] = target: full-length human MET (FL-MET) on cells (human) (UniProt P08581); test: FACS: inhibition of biotin-HGF binding to MET-transfected HEK-293T cells, agent at 0.16 µg/ml
# [5] = target: T1, human MET (soluble analyte in the Biacore assay) (human, UniProt P08581 25-932); test: SPR (Biacore 2000): agent captured via goat anti-human antibody, human MET injected
# T1 sequence (P08581 25-932 limits assumed): as the sequence (P08581 25-932 limits assumed) above
# Protocol: (§1) The KD of monovalent version of anti-MET antibody 73R009, monovalent anti-MET antibody 5D5, and anti-MET/FZD8-Fc bispecific agent 315B06 were determined using a Biacore 2000 system from Biacore Life Sciences (GE Healthcare). A goat anti-human antibody (Invitrogen H10500) was coupled to a carboxymethyl-dextran (CM5) SPR chip using standard amine-based chemistry (NHS/EDC) and blocked with ethanolamine. Antibodies were diluted to a concentration of 10 μg/ml in HBS-P-BSA (0.01M HEPES pH7.4, 0.15M NaCl, 0.005% v/v Polysorbate 20, 10 μg/ml BSA) and captured onto the chip via the anti-human antibody. Human MET was serially diluted 2-fold from 300 nM to 37.5 nM in HBS-P-BSA and injected sequentially over the captured anti-MET antibodies. MET association and dissociation was measured at each concentration. After each antigen injection 5 μl of 100 mM H₃P0₄ was injected to remove the antigen-antibody complex and a subsequent injection performed. Kinetic data were collected over time and were fit using the simultaneous global fit equation to yield affinity constants (KD values) for each agent.
# In addition, the bispecific agent 315B06 appeared to have stronger affinity for human MET than anti-MET antibody 5D5.
# [6] = target: T1, human MET (soluble analyte in the …); test: SPR (Biacore 2000) as described in Example 1
# Protocol: as §1
# Antibody 73R010 was used in a variation of the anti-MET/FZD8-Fc bispecific agent, and this variant bispecific agent is referred to as 315B07.
# [7] = target: T2, human Sema mutant Mut99 (Q99R; Sema-hCD4TM-GFP) on cells (human, UniProt P08581 25-515); test: FACS on transfected HEK-293T cells
# T2 construct: not shown: human CD4 transmembrane domain and GFP (display and reporter carrier at the C end)
# T2 sequence (P08581 25-515 Q99R limits assumed): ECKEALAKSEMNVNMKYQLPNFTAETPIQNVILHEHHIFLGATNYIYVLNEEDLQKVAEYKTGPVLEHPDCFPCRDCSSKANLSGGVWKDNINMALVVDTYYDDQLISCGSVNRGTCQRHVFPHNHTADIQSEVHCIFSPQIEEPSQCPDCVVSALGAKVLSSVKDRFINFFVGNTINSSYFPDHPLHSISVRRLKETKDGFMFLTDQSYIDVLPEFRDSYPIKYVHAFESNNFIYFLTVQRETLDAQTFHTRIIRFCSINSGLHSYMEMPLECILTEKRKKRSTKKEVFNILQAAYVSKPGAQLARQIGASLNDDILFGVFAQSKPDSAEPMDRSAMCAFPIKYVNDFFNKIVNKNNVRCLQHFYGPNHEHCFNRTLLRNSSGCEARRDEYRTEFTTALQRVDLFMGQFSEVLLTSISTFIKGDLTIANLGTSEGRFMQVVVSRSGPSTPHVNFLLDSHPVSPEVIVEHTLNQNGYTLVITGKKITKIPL
# Protocol: (§2) To identify the MET epitope recognized by the anti-MET/FZD8-Fc bispecific agent, epitope mapping was performed. […] Therefore, site-directed mutagenesis was performed to create a series of human Sema mutants. Kunkel mutagenesis was used to replace specific amino acids in the human Sema sequence with the corresponding amino acids found in the mouse Sema sequence at predicted antibody-binding sites. The human Sema mutants were: Mut96,99 (F96L and Q99R), Mut96 (F96L), Mut99 (Q99R), Mut328 (Q328N), Mut331 (R331K), and Mut337,338 (L337P and N338S).
# (§3) Mammalian expression plasmid vectors encoding a wild-type human Sema, a wild-type mouse Sema, a mouse/human Sema mutant wherein the 5′ end is mouse (aa 1-331) and the 3′ end is human (aa 332-515), and the human Sema mutants outlined above were generated by standard recombinant technology. These constructs comprise the transmembrane domain of a human CD4 protein and GFP (for example, Sema-hCD4TM-GFP). These expression constructs allow for expression of the Sema domain on the cell surface, as well as expression of GFP to monitor expression. […] The cells were washed and bound bispecific agents were detected with a secondary anti-human Fc antibody conjugated to allophycocyanin (APC). […] Labeled cells were analyzed by flow cytometry to measure the binding of 315B07 and 5D5/FZD8-Fc to the series of Sema mutants.
# [8] = target: T3, human Sema mutant Mut96,99 (F96L and Q99R; Sema-hCD4TM-GFP) on cells (human, UniProt P08581 25-515); test: FACS on transfected HEK-293T cells
# T3 construct: not shown: human CD4 transmembrane domain and GFP (display and reporter carrier at the C end)
# T3 sequence (P08581 25-515 F96L/Q99R limits assumed): as the sequence (P08581 25-515 Q99R limits assumed) above, with F72L counted along it
# Protocol: as §2, §3
molecule,measurement,setting,value
monovalent anti-MET antibody 5D5,Kd,[1],7.2 nM
same,percent reduction of HGF binding to MET,[2],70%
same,% Binding of hHGF at 0.16 ug/ml antibody,[3],14.3%
same,% Binding of hHGF at 0.3 ug/ml antibody,[3],10.6%
same,% Binding of hHGF at 0.625 ug/ml antibody,[3],12%
same,% Binding of hHGF at 1.25 ug/ml antibody,[3],8.54%
same,% Binding of hHGF at 2.5 ug/ml antibody,[3],9.61%
same,% Binding of hHGF at 5 ug/ml antibody,[3],6.67%
same,% Binding of hHGF at 10 ug/ml antibody,[3],6.31%
same,% Inhibition of hHGF binding at 0.3 ug/ml antibody,[3],47%
same,% Inhibition of hHGF binding at 0.625 ug/ml antibody,[3],40%
same,% Inhibition of hHGF binding at 1.25 ug/ml antibody,[3],57%
same,% Inhibition of hHGF binding at 2.5 ug/ml antibody,[3],52%
same,% Inhibition of hHGF binding at 5 ug/ml antibody,[3],67%
same,percent reduction of HGF binding to MET,[4],28%
B1,Kd,[5],1.8 nM
B2,Kd,[6],0.126 nM
same,binding result,[7],no binding
same,binding result,[8],no binding
B3,Kd,[5],1.1 nM
B4,Kd,[5],1.4 nM
